{"source": "patent US20020146750A1", "about": "(published 2002)", "binders": {"B1": {"name": "PH1 Fab antibody (Fab, V domains shown)", "VH": "QVQLVQSGGGLVQPGGSLRLSCAASGFTFRSNAMGWVRQAPGKGLEWVSGISGSGGSTYYADSVKGRFTISRDNSKNTLYLQMNSLRAEDTAVYYCAKHTGGGVWDPIDYWGQGTLVTVSS", "VL": "EIVLTQSPLSLPVTPGEPASISCRSSQSLLHSNGYTYLDWYLQKPGQSPQLLIYSGSHRASGVPDRFSGSVSGTDFTLRISRVEAEDVGVYYCMQGLQSPFTFGPGTKVDIKR", "notes": "Human Fab from a naive phage library; also called Fab PH1; WT-PH1"}, "B2": {"name": "PH1-IgG1 (antibody, V domains shown)", "VH": "B1 VH", "VL": "B1 VL", "notes": "Fully human gamma-1/kappa IgG1 from CHO-K1 clone 7F; FITC-labeled or biotinylated in some assays; also called recombinant human MUC1-specific IgG1; PH1-IgG1-FITC"}, "B3": {"name": "7F9 (Fab, V domains shown)", "VH": "B1 VH with D109G", "VL": "B1 VL", "notes": "PH1 Fab variant; also called clone 7F9"}, "B4": {"name": "5C8 (Fab, V domains shown)", "VH": "B1 VH with G102R, D109G", "VL": "B1 VL", "notes": "PH1 Fab variant; also called clone 5C8"}, "B5": {"name": "11G9 (Fab, V domains shown)", "VH": "B1 VH with D109G", "VL": "B1 VL", "notes": "PH1 Fab variant"}, "B6": {"name": "clone 23 (unselected SPIKE library) (Fab, V domains shown)", "VH": "B1 VH with H99P, V104A", "VL": "B1 VL"}, "B7": {"name": "clone 25 (unselected SPIKE library) (Fab, V domains shown)", "VH": "B1 VH with G102V, D106H, D109Y", "VL": "B1 VL"}, "B8": {"name": "clone 21 (unselected SPIKE library) (Fab, V domains shown)", "VH": "B1 VH with K98N, H99Q", "VL": "B1 VL"}, "B9": {"name": "clone 22 (unselected SPIKE library) (Fab, V domains shown)", "VH": "B1 VH with K98R, D109Y", "VL": "B1 VL"}, "B10": {"name": "clone 20 (unselected SPIKE library) (Fab, V domains shown)", "VH": "B1 VH with K98S, G103R, V104G", "VL": "B1 VL"}}, "key": {"[1]": {"biological_target": "T1, MUC1 15-mer Ac-PDTRPAPGSTAPPAL-NH2", "T1 construct": "coated on a biotin chip", "T1 peptide": "Ac-PDTRPAPGSTAPPAL-NH2", "assay": "SPR (BIAcore 2000), 1:1 Langmuir at steady state, 50 RU peptide; 15-mer surface; Fab", "description": "(§1) The selected PH1-IgG1 and the Fab PH1 antibodies were evaluated for their binding characteristics by surface plasmon resonance on a BIAcore 2000 apparatus (BIAcore AB, Uppsala, Sweden). A biotin chip was coated with a MUC1 15-mer, containing the minimal PH1 epitope, PAP (Ac-PDTRPAPGSTAPPAL-NH₂ (SEQ ID NO:40) (see Example 2, above), 50 RU and 320 RU) and 60-mer (NH₂-([…])₃-COOH (SEQ ID NO:8) (von Mensdorff-Pouilly et al., Tumor Biol., 19: 186-195 (1998), 50 RU) in HBS-EP buffer (Pharmacia) a surface, blocked with biotin (15 RU), was used as a negative control. The Fab PH1 and PH1-IgG1 were injected in HBS-EP buffer. To minimize rebinding of the antigen binding molecules, a speed of 30 μl/sec was used. Affinity calculation was performed with computer programs provided by BIAcore (BIAEvaluation-version3, BIACore AB). […] The affinity for the PH1 Fab antibody was calculated according to a 1:1 Langmuir stoichiometry at steady state (Chi²: 50.6). Because of the two binding places on the PH1-IgG1, the avidity was calculated as an apparent avidity constant using 1:1 Langmuir determination with mass transfer limitation (Chi²: 42).\n(§2) The affinity of the antibody was determined using BIAcore. Affinities of the Fab PH1 were calculated to be an average of 1.4 μM for binding to the 15-mer and 60-mer MUC1 peptide antigen coated surfaces."}, "[2]": {"biological_target": "T1, MUC1 15-mer Ac-PDTRPAPGSTAPPAL-NH2", "assay": "SPR (BIAcore 2000), apparent avidity constant, 1:1 Langmuir with mass transfer limitation, low density surface; 15-mer, low density surface; IgG1 avidity", "description": "as §1, §2"}, "[3]": {"biological_target": "T1, MUC1 15-mer Ac-PDTRPAPGSTAPPAL-NH2", "assay": "SPR (BIAcore) Kd assay on MUC1 15-mer", "description": "(§3) The selected PH1 and the affinity-matured antibodies were evaluated for affinity by surface plasmon resonance (SPR) on a BIAcore 2000 apparatus (BIAcore AB, Uppsala, Sweden). Channels of a biotin chip were coated with a MUC1 15-mer, containing the minimal PH1 epitope, PAP, (Ac-PDTRPAPGSTAPPAL-NH₂, (SEQ ID NO:40) 50 RU or 320 RU) or a 60-mer (NH₂-([…])₃-COOH (i.e., containing three copies of SEQ ID NO:8 (von Mensdorff-Pouilly et al., Tumor Biol., 19: 186-195 (1998), 50 RU) in HBS-EP buffer (Pharmacia). One surface was blocked with biotin (15 RU) and used as a negative control. The antibodies were injected in HBS-EP buffer. To minimize rebinding of the antigen binding fragments, the flow speed was 30 μl/sec. Affinity calculation was performed with the BIA-evaluation software provided by the BIAcore. The affinities of the Fabs were calculated according to a 1:1 stoichiometry at steady state.\n(§4) The CDR3 variants were extensively tested in BIAcore for the kinetics of the MUC1 peptide interaction. […] Using this off-rate screening with Fabs in the periplasmic extract of E. coli cultures, the clones in Table 9 as well as many more were screened for improvement in off-rate. […] To get accurate measurements, a Kd assay on the BIAcore was used with the MUC1 15-mer (there was no difference in the kinetics of interaction when the MUC1 60-mer was used, data not shown). […]"}, "[4]": {"biological_target": "T2, MUC1 60-mer peptide NH2-(…)3-COOH (biotinylated in the ELISAs and selections)", "T2 construct": "also called biotinylated MUC1 60-mer", "assay": "ELISA, soluble Fab, biotinylated MUC1 60-mer; relative signal", "outline": "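Soluble Fabs were tested by ELISA using biotinylated MUC1 60-mer as antigen, with signal reported relative.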"}, "[5]": {"biological_target": "T2, MUC1 60-mer peptide NH2-(…)3-COOH", "assay": "SPR (BIAcore), MUC1 60-mer peptide antigen; the 3.5-fold end is tied to 5C8 by paragraph 206; best variant, 5C8; Fab on MUC1 peptide chip", "description": "as §3, §4"}, "[6]": {"biological_target": "T2, MUC1 60-mer peptide NH2-(…)3-COOH", "assay": "phage ELISA on MUC1 antigen (biotinylated MUC1 60-mer)"}}, "note": "Where a chain is given by its changes, count along the chain named.", "data": [{"binder": "B1", "values": [{"measurement": "Kd", "setting": "[1]", "value": 1400, "unit": "nM"}]}, {"binder": "B2", "values": [{"measurement": "Kd", "setting": "[2]", "value": 8.3, "unit": "nM"}]}, {"binder": "B3", "values": [{"measurement": "fold improvement of affinity over wild type PH1 Fab", "setting": "[3]", "value": "< 2", "unit": "fold"}, {"measurement": "binding result", "setting": "[4]", "value": "binds"}]}, {"binder": "B4", "values": [{"measurement": "fold improvement of Kd over wild type PH1 Fab", "setting": "[3]", "value": 3.5, "unit": "fold"}, {"measurement": "Kd", "setting": "[5]", "value": "~400", "unit": "nM"}]}, {"binder": "B5", "values": [{"measurement": "binding result", "setting": "[4]", "value": "binds"}]}, {"binder": "B6", "values": [{"measurement": "ELISA OD450", "setting": "[6]", "value": 0.373, "unit": "OD450"}]}, {"binder": "B7", "values": [{"measurement": "ELISA OD450", "setting": "[6]", "value": 0.315, "unit": "OD450"}]}, {"binder": "B8", "values": [{"measurement": "ELISA OD450", "setting": "[6]", "value": 0.108, "unit": "OD450"}]}, {"binder": "B9", "values": [{"measurement": "ELISA OD450", "setting": "[6]", "value": 0.663, "unit": "OD450"}]}, {"binder": "B10", "values": [{"measurement": "ELISA OD450", "setting": "[6]", "value": 0.109, "unit": "OD450"}]}]}
